Data on 21 sequences can be found in a protein production outcome set (Wang et al. 2014).
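Note: failed if final PepcDB status was selected cloned or expressed and not failed if soluble or beyond.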

This series in a line: label from the status in PepcDB records.
For “MNISEINGFEVTGFVVRTTNADEMNPMTAKIGNLWEKFYLNAAPKLTDKSKVYGLYTNYESDFTGAFDVIACSDTLSPQLLSESVKTKVSSGKYVTFSATGEMPQVVIDLWNEVWNYFASEHCPHKRAYTTDFEYYKSANTVEISIAVR”, the protein production entry is “not failed”.
With “MHLAYPAVLSALLFCTGLYGVLARRNAILVLMSVELMLNAVNLNLVAFDVWLSRAAEETLHSGQALTLFTIAIAAAEIGIGLAIVLAVHRNRGTSDIDKLRDTAEGHEPDGPDTDTPATGTAAEKAEATA”, the protein production result was “failed”.
Under “MPIAGIPYTEIVMAIVAFVLGFLVGYLIKNVIKIGIIVLAIIVILIAIGVVSPHTVVSGLQSMGVYATQAEQYVSRIINYLPYNSILFIIGFVIGLVKG” stands “failed”.
For the sequence “YGDINLNLLKDKGYTTLQDEAIKIFNSLQQLESMSDPIPIIQGILQTGHDLRPLRDELYCQLIKQTNKVPHPGSVGNLYSWQILTCLSCTFLPSRGILKYLKFHLKRIREQFPGTEMEKYALFTYESLKKTKCREFVPSRDEIEALIHRQEMTSTVYCHGGGSCKITINSHTTAGEVVEKLIRGLAMEDSRNMFALFEYNGHVDKAIESRTVVADVLAKFEKLAATSEVGDLPWKFYFKLYCFLDTDNVPKDSVEFAFMFEQAHEAVIHGHHPAPEENLQVLAALRLQYLQGDYTLHAAIPPLEEVYSLQRLKARISQSTKTFTPCERLEKRRTSFLEGTLRRSFRTGSVVRQKVEEEQMLDMWIKEEVSSARASIIDKWRKFQGMNQEQAMAKYMALIKEWPGYGSTLFDVECKEGGFPQELWLGVSADAVSVYKRGEGRPLEVFQYEHILSFGAPLANTYKIVVDERELLFETSEVVDVAKLMKAYISMIVKKRYSTTRSASSQGSSR”, the protein production entry is recorded as “failed”.
Next, “MGDKEESKKFSANLNGTEIAITYVYKGDKVLKQSSETKIQFASIGATTKEDAAKTLEPLSAKYKNIAGVEEKLTYTDTYAQENVTIDMEKVDFKALQGISGINVSAEDAKKGITMAQMELVMKAAGFKEVKLEHHHHHH”: “not failed”; “MFTHLDENQQPRMVDISQKVAGDRRAVAQCIVQLPKAIKDYLTGQEIFLKKGPVIQTAIIAGTMAVKKTADLIPFCHTLPIHGCKFDINIVYQKRDYLEIFLQCAVNTNYKTGVEMEALCGVSVAALTIYDMCKSISSEIIIKNTKLIEKTGGKADVSQTPLYGLVLTGGKSRRMGKDKALINYQGQPHGQYIYDLLAKYCEQVFLSARPSQWQGTPLENLPTLVDRGESVGPMSGILTALQSYPGVNWLIIACDLAYINSTMVEKLIAQARQDLVATCYENADQGFPEALCGFYTPLALQLFTKAQNIGLHCPVKILQMADCQLIKPDNLFDIANINSPEDYGQINLEHHHHHH”: “not failed”.
Next, “MSTSPYEKLSEQEKKQMIKEIQEQAYEALLYAFGVEKKMISDDVKNLLNIEQESAEEKRKMAYEATLLAATFSHSLAKDRDGVLATLKNQLHITDDFHRECQNRVRNNILVVQLTGEASGSNYVGETGWTTLRRISNTIFRF”: “failed”; “MRMEDEDYNTSISYGDEYPDYLDSIVVLEDLSPLEARVTRIFLVVVYSIVCFLGILGNGLVIIIATFKMKKTVNMVWFLNLAVADFLFNVFLPIHITYAAMDYHWVFGTAMCKISNFLLIHNMFTSVFLLTIISSDRCISVLLPVWSQNHRSVRLAYMACMVIWVLAFFLSSPSLVFRDTANLHGKISCFNNFSLSTPGSSSWPTHSQMDPVGYSRHMVVTVTRFLCGFLVPVLIITACYLTIVCKLQRNRLAKTKKPFKIIVTIIITFFLCWCPYHTLNLLELHHTAMPGSVFSLGLPLATALAIANSCMNPILYVFMGQDFKKFKVALFSRLVNALSEDTGHSSYPSHRSFTKMSSMNERTSMNERETGML”: “failed”.
For the sequence “MIVFYDSWCPMCTAVAERTKKLDKKGKVKFVSFRDEDVVEKYELSQELQSKMEQRLYIFKNNKWYDGIHSIHVLAKSIPSYWFAVPFIKLSIVLGFGNKVYDYIANNRKLVPVGHCRGGVCEIPTKK”, the protein production result is recorded as “failed”.
As for “SIAYIEPYFLENDAEAASAATAAGKSTDGVSESLNIQGEILCGGAAADIAGRDFGGMNCVKPLAVVRPVGPEDIAGAVKAALRSDKLTVAARGNGHSINGQAMAEGGLVVDMSTTAENHFEVGYLSGGDATAFVDVSGGALWEDVLKRCVSEYGLAPRSWTDYLGLTVGGTLSNAGVSGQAFRYGPQTSNVTELDVVTGNGDVVTCSEIENSELFFSVLGGLGQFGIITRARVLLQPAPDMVRWIRVVYTEFDEFTQDAEWLVSQKNESSFDYVEGFVFVNGADPVNGWPTVPLHPDHEFDPTRLPQSCGSVLYCLELGLHYRDSDSNSTIDKRVERLIGRLRFNEGLRFEVDLPYVDFLLRVKRSEEIAKENGTWETPHPWLNLFVSKRDIGDFNRTVFKELVKNGVNGPMLVYPLLRSRWDDRTSVVIPEEGEIFYIVALLRFVPPCAKVSSVEKMVAQNQEIVHWCVKNGIDYKLYLPHYKSQEEWIRHFGNRWSRFVDRKAMFDPMAILSPGQKIFNRSL”, the protein production result is recorded as “not failed”.
Next, “MSVFTKTSVASAATTCLFVLLWSSGAIVSKLGLAHASPFAFLLLRSALALAGLLLIGPLLGLRWPRTRGSILRALGTGCVLLGAYQIFYLLALDTHVTPGVMATVMGVQPILTVVLMERQRSWSRLFGLGLGLGGLIMVVYQGINLGGVSLAGMLFALLALVSMTFGSILQKRITDNPMGTLPLQYLAGFAMCALFAPLQPLHVEWTGSFVGALLWMGLVVSLLATLLLYRLIAKGNLVNVTSLFYLVPAVTAVMDLLIFGNRLAPLSLLGMGLIVVGLLFVFRKPAARLAEA”: “failed”; “MSARLDAQIAFLKQADRLKSVERANVLLDLSRPENSAEHSWHLALWALVLSPFAAPDVDVDRAIRMLLLHDLVEIETGDHPIHEVTDWQAVERAERAAARKLFGLLPPDQAADFHTLWTEFDADETADARYAKMLDRCQPMFQVLCADTPRPDHVEVVRENLSSGRAAYLAEAFPEAHAHARALLERHPPVTGGFGDRLEFLAEADRLKTVLRASRLMDDSRFENSAEHSWHIMLYAWVLGEYAAAPVDIDRVLRMLLLHDLVEIDAGDNPIHGNVDHAAQEALEAAAAERLFGLLPPDQGAGLRAIWQEFETAQSADALFGKAVDRVQTPIANLENGGGSWVTYDVSLQQLVARVGTPVSRGAPGLWDWLFPQLSDCFTRLGLRLLEHHHHHH”: “not failed”.
In the case of “MRSLTHIAKIEPPPVRRVTYVKHYSIQPANLEFNAEGTPVSRDFDDVYFSNDNGLEETRYVFLGGNQLEVRFPEHPHPLFVVAESGFGTGLNFLTLWQAFDQFREAHPQAQLQRLHFISFEKFPLTRADLALAHQHWPELAPWAEQLQAQWPMPLPGCHRLLLDEGRVTLDLWFGDINELTSQLDDSLNQKVDAWFLDGFAPAKNPDMWTQNLFNAMARLARPGGTLATFTSAGFVRRGLQDAGFTMQKRKGFGRKREMLCGVMEQTLPLPCSAPWFNRTGSSKREAAIIGGGIASALLSLALLRRGWQVTLYCADEAPALGASGNRQGALYPLLSKHDEALNRFFSNAFTFARRFYDQLPVKFDHDWCGVTQLGWDEKSQHKIAQMLSMDLPAELAVAVEANAVEQITGVATNCSGITYPQGGWLCPAELTRNVLELAQQQGLQIYYQYQLQNLSRKDDCWLLNFAGDQQATHSVVVLANGHQISRFSQTSTLPVYSVAGQVSHIPTTPELAELKQVLCYDGYLTPQNPANQHHCIGASYHRGSEDTAYSEDDQQQNRQRLIDCFPQAQWAKEVDVSDKEARCGVRCATRDHLPMVGNVPDYEATLVEYASLAEQKDEAVSAPVFDDLFMFAALGSRGLCSAPLCAEILAAQMSDEPIPMDASTLAALNPNRLWVRKLLKGKAVKAG”, the protein production entry is listed as “failed”.
Next, “MEKESQTIFDKNVIEFVTVAAEFCAFLERAESMKRSTFVDTSLKILPLLYLKASMLPKCETIGDEAPETYVTEEIYEILRINLAGLMGDKDDYLDVFVQDMVYSDQPIKKSISEDLADIYQDIKDFIFVFQLGLNETMNDSLAICQENFGMLWGQKLVNTLRALHDVKYNLQDNEEEEENNEEGFYEPSEDDSCCEEGGCHCHDDECHCHEGSCHCHDDEK”: “failed”; “MEEVEEFKYEPKSVKEIFIEMKDTVELMVDLAYASLLFGDKEIAEEVLELEERIDLLNYQLMMHSVLAARNVKEAEQVITILQIANAIEDISNAAGDLAKMVLEGVELHPVIKETILEGEEIIGKIQVYPESVIVGKTLGELDLATNTGVWIIAVRRGKRWIFGPNENFKIRAGDVLIGRGTRTSIDHLKEIARGAIRVIGNERA”: “not failed”.
Consider “MKVLSYLKNFYLFLAIGAIMQASENMGSQHQKTDERVIYLAGGCFWGLEAYMERIYGVIDASSGYANGKTSSTNYEKLHESDHAESVKVIYDPKKISLDKLLRYYFKVVDPVSVNKQGNDVGRQYRTGIYYVNSADKEVIDHALKALQKEVKGKIAIEVEPLKNYVRAEEYHQDYLKKHPSGYCHIDLKKADEVIVDDDKYTKPSDEVLKKKLTKLQYEVTQNKHTEKPFENEYYNKEEEGIYVDITTGEPLFSSADKYDSGCGWPSFSKPINKDVVKYEDDESLNRKRIEVLSRIGKAHLGHVFNDGPKELGGLRYCINSAALRFIPLKDMEKEGYGEFIPYIKKGELKKYINDKKSH”, for which the protein production entry is “failed”.
Under “MNRLDQLGIRINLICNVFDKWIGQQDLNYNLFTVLYTLATEGSRTQKHIGEEWSLPKQTVSGVCKTLAGQGLIEWQEGEQDRRERLLSLTEKGKVHAAPLTENAQEFSDKVFSTFGDKRTTRLFADLDALAEVMEKTISENKK” stands “failed”; under “MSRIASHTQGLFADLREWIDLRVDLAILEMEERLDAFKNDLALGLTVAVFAFFAAFFSLTTVALGVGWLLGHPFWGFLAVSVALILIIVTLRVTKPALMPPSNLFESLRGERAASDEGPSSRPASAAVDEADGAEAQASAPDVKA”, “failed”; under “SRFLVLGGAGSIGQAVTKEIFKRNPKKLHVVDISENNMVELVRDIRSSFGYIDGDFQTFALDIGSLEYDAFIKADGKFDYVLNLSALKHVRSEKDPYTLMRMIDVNVFNTDKTIQQSIDAGAKKYFCVSTDKAANPVNMMGASKRIMEMFLMRKSEQIAISTARFANVAFSDGSLLHGFNQRIQKRQPIVAPND”, “failed”.
Under “MSISSKAKEILTQFTREVWSEGNIEASDKYIAPKYTVLHDPGDPWEGRELDVAGYKERVKTLRAAFPDQCFDIQGLFADGDAVVMTWLWTATHKEDIPGFPSTGKQIKMSGATVYYFDGNRLTGHWQITDRLGVYQQLRQAAAGA” stands “not failed”; under “MSTQYWEEEIEIMSREKLQELQLQRLKKTINIAANSPYYKEVFSKNGITGDSIQSLDDIRKIPFTTKSDMRANYPFGLVAGDMKRDGVRIHSSSGTTGNPTVIVHSQHDLDSWANLVARCLYMVGIRKTDVFQNSSGYGMFTGGLGFQYGAERLGCLTVPAAAGNSKRQIKFISDFKTTALHAIPSYAIRLAEVFQEEGIDPRETTLKTLVIGAEPHTDEQRRKIERMLNVKAYNSFGMTEMNGPGVAFECQEQNGMHFWEDCYLVEIIDPETGEPVPEGEIGELVLTTLDREMMPLIRYRTRDLTRILPGKCPCGRTHLRIDRIKGRSDDMFIIKGVNIFPMQVEKILVQFPELGSNYLITLETVNNQDEMIVEVELSDLSTDNYIELEKIRRDIIRQLKDEILVTPKVKLVKKGSLPQSEGKAVRVKDLRDNK”, “not failed”.
